Numbering of substitutions follows the chain as printed.
B1: EGPh Wild-type: Pyrococcus horikoshii-derived endoglucanase, SEQ ID NO: 1, parent endoglucanase (protein)
chain: MEGNTILKIVLICTILAGLFGQVVPVYAENTTYQTPTGIYYEVRGDTIYMINVTSGEETPIHLFGVNWFGFETPNHVVHGLWKRNWEDMLLQIKSLGFNAIRLPFCTESVKPGTQPIGIDYSKNPDLRGLDSLQIMEKIIKKAGDLGIFVLLDYHRIGCTHIEPLWYTEDFSEEDFINTWIEVAKRFGKYWNVIGADLKNEPHSVTSPPAAYTDGTGATWGMGNPATDWNLAAERIGKAILKVAPHWLIFVEGTQFTNPKTDSSYKWGYNAWWGGNLMAVKDYPVNLPRNKLVYSPHVYGPDVYNQPYFGPAKGFPDNLPDIWYHHFGYVKLELGYSVVIGEFGGKYGHGGDPRDVIWQNKLVDWMIENKFCDFFYWSWNPDSGDTGGILQDDWTTIWEDKYNNLKRLMDSCSKSSSSTQSVIRSTTPTKSNTSKKICGPAILIILAVFSLLLRRAPR
modifications: Pyrococcus horikoshii EGPh
B2: EGPh Mutant: mutant EGPh, SEQ ID NO: 2; 273rd tryptophan substituted with alanine (protein)
chain: B1 chain with W273A
modifications: Pyrococcus horikoshii EGPh W273A
notes: 273rd tryptophan substituted with alanine
B3: EGSt Wild-type: Spirochaeta thermophile-derived endoglucanase, SEQ ID NO: 37, parent endoglucanase (protein)
chain: MKYLRTILLSLLVFLITLGCSLPFLDVSGKGGTAARATELRVGRLTGVNWFGFETGNHVVHGLWARDYKSMLKQIADLGFNCIRIPWANEMIDKAPNSIQINPSGVDPYTGEQGLNLDLEGLSSLEVLDKIIEEANRLGLYVILDNHSRAADGYMNETLWYTDEYPEERWISDWVMMVRRYKNYPNVIGADLNNEPHGNTGTGMKPPATWGYTLPEYGDTDWKAAAERCAAAILAENPNLYIIVEGVEEYQGDTYWWGGNLKGVRDYPITSIPAENLIYSPHEYGPEVYNQSWFSDPTFPDNMPAIWDEHFWFIYKENIAPVLIGEFGIKEASAADPSSVAYQWFTTFMAYVGDKASWTFWSWNPNSGDTGGILKDDWVTVNEAKYNLIRPYLANPPQPTATPTPTGTPTPTPTPTPTPTPTPTPTPTPTPTATPTPTPTPTPTPTPTPTATPTPSGEYTEIALPFSYDGAGEYYWKTDQFSTDPNDWSRYVNSWNLDLLEINGTDYTNVWVAQHQIPAASDGYWYIHYKSGVSWGHVEIK
modifications: Spirochaeta thermophila EGSt
B4: EGSt Mutant: mutant EGSt, SEQ ID NO: 38; residue corresponding to 273rd tryptophan substituted with alanine (protein)
chain: B3 chain with W257A
modifications: Spirochaeta thermophila EGSt W257A
notes: residue corresponding to 273rd tryptophan substituted with alanine

How the values were obtained:
[1] = Activity to degrade phosphoric acid swollen cellulose; format: biochemical
In short: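 Enzyme added to phosphoric acid swollen cellulose in 50 mM acetate buffer, pH 5.2; 1 h reaction at 30–85 °C, stopped by pH change if needed. Glucose released measured by glucose kit; activity expressed relative to parent endoglucanase set at 100%.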

[2] = Inhibition experiment with vanillin: degradation of phosphoric acid swollen cellulose; format: biochemical; conditions: enzyme 0.5 μM, 1 hour, 50° C., parent at 0 mM = 100%
[3] = Inhibition experiment with ferulic acid: degradation of phosphoric acid swollen cellulose; format: biochemical; conditions: enzyme 0.5 μM, 1 hour, 50° C., parent at 0 mM = 100%
[4] = Saccharification of lignocellulose 1 with Celluclast and endoglucanase; format: biochemical, Rice straw; conditions: 5 wt % Lignocellulose 1, pH 5.2, 50° C., 24 hours; 1.0 mg/mL cellulase + 0.1 mg/mL endoglucanase
In short: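 Rice straw pretreated with liquid ammonia (15 min room temperature, then 1 h at 150° C), suspended at 5 wt % in 50 mM acetate pH5.2. Hydrolysed at 50° C for 24 h with 1.0 mg/mL Trichoderma reesei cellulase plus 0.1 mg/mL mutant or wild-type endoglucanase; glucose measured.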

[5] = Saccharification of lignocellulose 2 with Celluclast and endoglucanase; format: biochemical, Rice straw; conditions: 5 wt % Lignocellulose 2, pH 5.2, 50° C., 24 hours; 1.0 mg/mL cellulase + 0.1 mg/mL endoglucanase
In short: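 Dilute-sulfuric-acid-pretreated rice straw (10 wt% solids, pH ~5) suspended at 5 wt% in 50 mM acetate buffer pH 5.2 was digested 24 h at 50 °C with 1.0 mg/mL Trichoderma reesei Celluclast plus 0.1 mg/mL mutant or wild-type endoglucanase; glucose released was measured.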

[6] = Saccharification of lignocellulose 3 with Celluclast and endoglucanase; format: biochemical, Rice straw; conditions: 5 wt % Lignocellulose 3, pH 5.2, 50° C., 24 hours; 1.0 mg/mL cellulase + 0.1 mg/mL endoglucanase
In short: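 Hydrothermally pretreated rice straw (180° C., 20 min) at 5 wt % in 50 mM acetate buffer pH 5.2 digested at 50° C. for 24 h with Celluclast 1.0 mg/mL plus mutant or wild-type endoglucanase 0.1 mg/mL. Released glucose measured over time.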

[7] = Saccharification of lignocellulose 1 with Trichoderma reesei culture solution and endoglucanase; format: biochemical, Rice straw; conditions: Lignocellulose 1, 24 hours; cellulase 1.0 mg/mL + endoglucanase 0.1 mg/mL + β-glucosidase (Novozyme 188) 0.01 mg/mL
In short: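 Substrate was liquid-ammonia-treated rice straw (1 h, 150 °C), suspended at 5 wt % in 50 mM acetate buffer pH 5.2 and hydrolysed for 24 h at 50 °C. Enzymes: T. reesei culture solution 1.0 mg/mL, mutant or wild-type endoglucanase 0.1 mg/mL, β-glucosidase 0.01 mg/mL. Glucose released was measured.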

[8] = Saccharification of lignocellulose 2 with Trichoderma reesei culture solution and endoglucanase; format: biochemical, Rice straw; conditions: Lignocellulose 2, 24 hours; cellulase 1.0 mg/mL + endoglucanase 0.1 mg/mL + β-glucosidase (Novozyme 188) 0.01 mg/mL
In short: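 Dilute-sulfuric-acid-autoclaved rice straw (pH ~5) suspended at 5 wt % in 50 mM acetate pH 5.2, hydrolysed 24 h at 50 °C. Enzymes: T. reesei culture solution 1.0 mg/mL, mutant or wild-type endoglucanase 0.1 mg/mL, β-glucosidase 0.01 mg/mL. Glucose released was measured.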

[9] = Saccharification of lignocellulose 3 with Trichoderma reesei culture solution and endoglucanase; format: biochemical, Rice straw; conditions: Lignocellulose 3, 24 hours; cellulase 1.0 mg/mL + endoglucanase 0.1 mg/mL + β-glucosidase (Novozyme 188) 0.01 mg/mL
In short: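 Hydrothermally treated rice straw (180 °C, 20 min, 10 MPa; solid fraction) suspended at 5 wt % in 50 mM acetate buffer pH 5.2, hydrolysed 24 h at 50 °C. Enzymes: T. reesei culture-solution cellulase 1.0 mg/mL, mutant or wild-type endoglucanase 0.1 mg/mL, β-glucosidase 0.01 mg/mL; glucose generated measured.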

[10] = 1% phosphoric acid swollen cellulose, pH 5.2, enzyme 0.5 μM, 1 hour, 50° C., glucose generated by each parent endoglucanase = 100%

| Molecule | Relative activity [1, 10] [%] | Relative activity to degrade phosphoric acid swollen cellulose ([2]; vanillin 0 mM) [%] | Relative activity to degrade phosphoric acid swollen cellulose ([2]; vanillin 5 mM) [%] | Relative activity to degrade phosphoric acid swollen cellulose ([2]; vanillin 10 mM) [%] | Relative activity to degrade phosphoric acid swollen cellulose ([2]; vanillin 15 mM) [%] | Relative activity to degrade phosphoric acid swollen cellulose ([3]; ferulic acid 0 mM) [%] | Relative activity to degrade phosphoric acid swollen cellulose ([3]; ferulic acid 5 mM) [%] | Relative activity to degrade phosphoric acid swollen cellulose ([3]; ferulic acid 10 mM) [%] | Relative activity to degrade phosphoric acid swollen cellulose ([3]; ferulic acid 15 mM) [%] | Concentration of glucose generated, Celluclast + Wild-type [4] [g/L] | Concentration of glucose generated, Celluclast + Wild-type [5] [g/L] | Concentration of glucose generated, Celluclast + Wild-type [6] [g/L] | Concentration of glucose generated, Culture solution + Wild-type [7] [g/L] | Concentration of glucose generated, Culture solution + Wild-type [8] [g/L] | Concentration of glucose generated, Culture solution + Wild-type [9] [g/L] | Concentration of glucose generated, Celluclast + Mutant [4] [g/L] | Concentration of glucose generated, Celluclast + Mutant [5] [g/L] | Concentration of glucose generated, Celluclast + Mutant [6] [g/L] | Concentration of glucose generated, Culture solution + Mutant [7] [g/L] | Concentration of glucose generated, Culture solution + Mutant [8] [g/L] | other results |
| --- | --- | --- | --- | --- | --- | --- | --- | --- | --- | --- | --- | --- | --- | --- | --- | --- | --- | --- | --- | --- | --- |
| B1 | 100 | 100 | 40 | 40 | 40 | 100 | 60 | 50 | 50 | 12 | 11 | 12 | 9 | 8 | 10 | – | – | – | – | – | Relative activity ([1]; Comparative Example 2, technique similar to Example 3, parent endoglucanase = 100%): 100% |
| B2 | 100 | 100 | 95 | 90 | 90 | 100 | 100 | 100 | 95 | – | – | – | – | – | – | 16 | 15 | 16 | 13 | 12 | Concentration of glucose generated, Culture solution + Mutant [9]: 13 g/L |
| B3 | 100 | 100 | 50 | 50 | 45 | 100 | 50 | 45 | 40 | 11 | 12 | 11 | 8 | 9 | 8 | – | – | – | – | – | – |
| B4 | 100 | 100 | 100 | 100 | 90 | 100 | 100 | 100 | 90 | – | – | – | – | – | – | 14 | 15 | 14 | 11 | 12 | Concentration of glucose generated, Culture solution + Mutant [9]: 11 g/L |
